Biological target: the molecule itself
Test: fluorescence correlation spectroscopy (FCS); purified ubiquitin- and GFP-tagged proteins at 0.1 µM in 20 mM HepesKOH pH 7.6 with 150 mM NaCl, compared with 500 mM NaCl; diffusivity as read-out of self-association

B1: His-ubiquitin- and GFP-tagged full-length Cavin1 (recombinant GFP-Cavin1) (natural protein, mouse, UniProt O54724 1-392, looked up)
chain: MEDVTLHIVERPYSGFPDASSEGPEPTQGEARATEEPSGTGSDELIKSDQVNGVLVLSLLDKIIGAVDQIQLTQAQLEERQAEMEGAVQSIQGELSKLGKAHATTSNTVSKLLEKVRKVSVNVKTVRGSLERQAGQIKKLEVNEAELLRRRNFKVMIYQDEVKLPAKLSVSKSLKESEALPEKEGDELGEGERPEDDTAAIELSSDEAVEVEEVIEESRAERIKRSGLRRVDDFKKAFSKEKMEKTKVRTRENLEKTRLKTKENLEKTRHTLEKRMNKLGTRLVPVERREKLKTSRDKLRKSFTPDHVVYARSKTAVYKVPPFTFHVKKIREGEVEVLKATEMVEVGPEDDEVGAERGEATDLLRGSSPDVHTLLEITEESDAVLVDKSDSD
notes: Cavin1, mouse, residues 1-392; also called purified recombinant GFP-Cavin1; source: E. coli Rosetta 2 (DE3), purified (TALON, Superose 6 SEC); not shown: His6-ubiquitin, N-terminal, kept; GFP, C-terminal, kept
binding result: binds

Reference: PMC7875971, “Cavin1 intrinsically disordered domains are essential for fuzzy electrostatic interactions and caveola formation” (Nature Communications, 2021)
